IC50 of BT-474 cell proliferation (tritiated thymidine incorporation after 5-day treatment) data for one substance are collected here from patent US20160213760A1.

In the assay the target is human epidermal growth factor 2 (HER2)/neu receptor (human) (UniProt P04626). Nature of the assay: cell-based or functional assay.

“protein conjugate H43 (ANG4043; trastuzumab conjugated to Angiopep-2) (antibody)” yielded an IC50 of BT-474 cell proliferation (tritiated thymidine incorporation after 5-day treatment) of 3.16 nM.
